Assay results reported in US20130259828A1.
Several values for one entry are separate records, joined by “and”; a condition that tells them apart may be missing. Equal entries are not always repeated.

Target: IL-12 receptor on mouse lineage negative bone marrow cells (mouse) (UniProt Q60837)
Assay: cell-based or functional assay

Chain of IL-12 receptor on mouse lineage negative bone marrow cells (mouse) (Q60837 20-738, chain 1 of 2): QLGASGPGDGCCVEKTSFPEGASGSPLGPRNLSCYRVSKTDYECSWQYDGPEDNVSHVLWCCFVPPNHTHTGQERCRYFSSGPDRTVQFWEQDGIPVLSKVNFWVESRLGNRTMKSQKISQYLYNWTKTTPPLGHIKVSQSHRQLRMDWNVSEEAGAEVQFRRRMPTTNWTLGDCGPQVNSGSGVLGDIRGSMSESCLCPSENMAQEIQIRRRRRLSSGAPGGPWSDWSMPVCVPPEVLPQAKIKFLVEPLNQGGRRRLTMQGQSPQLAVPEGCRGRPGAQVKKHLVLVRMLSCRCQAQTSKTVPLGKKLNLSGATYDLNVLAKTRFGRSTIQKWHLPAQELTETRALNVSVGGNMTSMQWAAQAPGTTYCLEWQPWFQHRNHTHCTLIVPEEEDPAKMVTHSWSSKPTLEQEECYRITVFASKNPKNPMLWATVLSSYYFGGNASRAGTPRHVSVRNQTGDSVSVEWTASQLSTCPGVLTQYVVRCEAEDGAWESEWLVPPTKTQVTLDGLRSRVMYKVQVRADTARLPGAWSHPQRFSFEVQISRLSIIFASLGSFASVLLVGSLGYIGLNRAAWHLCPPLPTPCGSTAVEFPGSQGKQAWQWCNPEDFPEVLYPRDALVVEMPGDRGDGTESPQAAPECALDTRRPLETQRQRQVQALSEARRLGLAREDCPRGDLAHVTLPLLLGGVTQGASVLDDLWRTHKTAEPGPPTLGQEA
Chain of IL-12 receptor on mouse lineage negative bone marrow cells (mouse) (P97378 24-874, chain 2 of 2, further chain): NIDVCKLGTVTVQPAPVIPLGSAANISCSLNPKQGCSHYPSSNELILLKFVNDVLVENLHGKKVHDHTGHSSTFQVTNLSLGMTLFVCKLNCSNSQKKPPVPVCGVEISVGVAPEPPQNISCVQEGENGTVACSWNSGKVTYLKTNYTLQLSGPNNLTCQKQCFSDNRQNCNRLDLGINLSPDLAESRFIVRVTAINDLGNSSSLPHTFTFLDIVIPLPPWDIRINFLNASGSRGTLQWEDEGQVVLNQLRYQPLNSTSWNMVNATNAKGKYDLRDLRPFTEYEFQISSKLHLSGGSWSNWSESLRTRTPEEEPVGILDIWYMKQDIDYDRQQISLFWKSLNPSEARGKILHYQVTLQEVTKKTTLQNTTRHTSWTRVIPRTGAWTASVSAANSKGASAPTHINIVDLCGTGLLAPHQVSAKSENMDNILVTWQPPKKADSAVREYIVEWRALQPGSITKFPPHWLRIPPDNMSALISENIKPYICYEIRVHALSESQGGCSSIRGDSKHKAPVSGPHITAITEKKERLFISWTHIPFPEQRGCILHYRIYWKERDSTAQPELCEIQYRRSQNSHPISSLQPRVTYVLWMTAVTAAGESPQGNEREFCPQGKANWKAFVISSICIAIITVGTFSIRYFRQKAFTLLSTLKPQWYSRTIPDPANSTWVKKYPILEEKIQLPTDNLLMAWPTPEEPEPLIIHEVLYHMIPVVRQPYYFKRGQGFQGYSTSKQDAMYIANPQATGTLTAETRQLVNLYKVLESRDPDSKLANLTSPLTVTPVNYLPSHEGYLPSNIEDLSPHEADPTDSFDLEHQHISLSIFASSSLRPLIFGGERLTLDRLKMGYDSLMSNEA

Fold-Increase in Lin- IL-12R+ cells (FACS of bone marrow after in vivo IL-12, 100 ng/mouse): 5.4 fold and 3.5 fold
Substance: exogenous IL-12 (IL-12 ligand) injected into C57BL/6 mice in Example 7
